Measurements as given in publication PMC4837482, “The complex binding mode of the peptide hormone H2 relaxin to its receptor RXFP1” (Nature Communications, 2016).
Where a chain is given by its changes, count along the chain named.

Tests used:
Experiment in all cases: cAMP activity assay (pCRE β-galactosidase reporter), transfected HEK293T cells
Assay type in all cases: cell-based
RXFP1 A68^Δ = biological target: T1, RXFP1 A68^Δ (Homo sapiens, UniProt Q9HBX9, DEL90-90); conditions: construct A68^Δ, ±s.e.m.
T1 construct: transiently transfected human embryonic kidney (HEK) 293T cells expressing full-length RXFP1 and mutants; expressed in transfected cells; host or cells: HEK293T
T1 sequence (Q9HBX9 with tags, fused parts or gaps DEL90-90 limits assumed): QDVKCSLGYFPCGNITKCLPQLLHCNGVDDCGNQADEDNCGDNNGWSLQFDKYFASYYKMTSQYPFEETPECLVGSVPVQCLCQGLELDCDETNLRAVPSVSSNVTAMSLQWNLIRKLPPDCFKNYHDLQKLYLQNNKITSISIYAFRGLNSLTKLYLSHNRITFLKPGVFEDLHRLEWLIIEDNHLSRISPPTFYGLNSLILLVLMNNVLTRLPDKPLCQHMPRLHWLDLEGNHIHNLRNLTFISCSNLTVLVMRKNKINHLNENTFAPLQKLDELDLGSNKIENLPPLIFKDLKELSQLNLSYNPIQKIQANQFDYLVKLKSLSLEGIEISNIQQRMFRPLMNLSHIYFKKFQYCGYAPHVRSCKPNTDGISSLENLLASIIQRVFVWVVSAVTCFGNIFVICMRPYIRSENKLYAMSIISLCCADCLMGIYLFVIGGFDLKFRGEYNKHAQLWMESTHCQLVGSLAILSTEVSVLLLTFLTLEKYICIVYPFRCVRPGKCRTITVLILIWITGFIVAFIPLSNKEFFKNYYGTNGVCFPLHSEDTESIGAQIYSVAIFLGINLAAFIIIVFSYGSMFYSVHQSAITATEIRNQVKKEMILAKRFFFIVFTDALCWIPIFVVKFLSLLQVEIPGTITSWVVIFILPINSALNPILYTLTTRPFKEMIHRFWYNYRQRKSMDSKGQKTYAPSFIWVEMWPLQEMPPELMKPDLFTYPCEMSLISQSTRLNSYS
In short: (§1)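 H2 relaxin dilutions in minimal media with 1% DMSO; 5 μM Forskolin as positive control, media/1% DMSO as negative. After freezing at −80 °C, cells lysed in pH 8.0 phosphate buffers and chlorophenol red-β-D-galactopyranoside added; absorbance read at 570 nm. Responses given as % of 5 μM Forskolin maximum.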

RXFP1 D42A = biological target: T2, RXFP1 D42A (Homo sapiens, UniProt Q9HBX9, D64A); conditions: construct D42A
T2 construct: transiently transfected human embryonic kidney (HEK) 293T cells expressing full-length RXFP1 and mutants; expressed in transfected cells; host or cells: HEK293T
T2 sequence (Q9HBX9 23-757 D64A limits assumed): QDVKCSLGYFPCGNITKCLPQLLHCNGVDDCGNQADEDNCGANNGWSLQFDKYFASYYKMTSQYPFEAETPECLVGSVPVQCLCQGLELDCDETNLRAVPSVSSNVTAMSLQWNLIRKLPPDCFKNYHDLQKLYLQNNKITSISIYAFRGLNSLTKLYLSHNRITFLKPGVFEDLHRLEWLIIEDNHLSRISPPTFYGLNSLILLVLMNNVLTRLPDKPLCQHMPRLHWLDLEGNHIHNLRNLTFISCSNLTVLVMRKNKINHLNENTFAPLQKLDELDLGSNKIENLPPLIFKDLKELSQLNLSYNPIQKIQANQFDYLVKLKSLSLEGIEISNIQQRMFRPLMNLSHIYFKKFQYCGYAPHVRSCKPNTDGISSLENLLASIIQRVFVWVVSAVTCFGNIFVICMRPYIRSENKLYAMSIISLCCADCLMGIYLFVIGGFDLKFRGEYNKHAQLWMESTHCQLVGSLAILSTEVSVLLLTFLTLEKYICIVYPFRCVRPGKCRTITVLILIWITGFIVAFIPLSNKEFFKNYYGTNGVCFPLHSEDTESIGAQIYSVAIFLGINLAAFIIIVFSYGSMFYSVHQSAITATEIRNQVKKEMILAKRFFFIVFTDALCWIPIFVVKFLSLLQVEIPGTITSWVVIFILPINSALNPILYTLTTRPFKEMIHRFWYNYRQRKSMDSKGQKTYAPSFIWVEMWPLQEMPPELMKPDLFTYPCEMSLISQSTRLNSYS
In short: as §1

RXFP1 G45W46-AA = biological target: T3, RXFP1 G45W46-AA (Homo sapiens, UniProt Q9HBX9, G67A/W68A)
T3 construct: transiently transfected human embryonic kidney (HEK) 293T cells expressing full-length RXFP1 and mutants; expressed in transfected cells; host or cells: HEK293T
T3 sequence (Q9HBX9 23-757 G67A/W68A limits assumed): T2 sequence (Q9HBX9 23-757 D64A limits assumed) with A42D, G45A, W46A
In short: as §1

H2 relaxin: two-chain 6-kDa peptide hormone structurally related to insulin; recombinant human gene-2 H2 relaxin provided by Corthera
H2 relaxin pEC50 (RXFP1 A68^Δ; cAMP reporter): 11.18±0.02 (3) | H2 relaxin Emax (RXFP1 A68^Δ; percentage of maximum response to 5 μM Forskolin): 93.78±3.19 (3) % | H2 relaxin pEC50 (RXFP1 D42A): <6 (4) | H2 relaxin-stimulated cAMP activity (RXFP1 G45W46-AA; G45A/W46A RXFP1): virtually unable to signal | H2 relaxin pEC50 (RXFP1 G45W46-AA; construct G45W46-AA, cAMP reporter): <6 (3)
